# In the RNAGym collection of RNA variant scans (doi:10.1073/pnas.2313332121):
# B1: TPR t1 (parent)
# chain: GACCAAUCUGCCCUCAGAGCUCGAGAACAUCUUCGGAUGCAGAGGAGGCAGGCUUCGGUGGCGCGAUAGCGCCAACGUCCUCAACCUCCAAUGCAUCCCACCACAUGAUGAUGCCUGAAGAGCCUUGGUUUUUUG
# Variants of: B1
# Test: polymerase ribozyme fitness, log enrichment relative to wild type (log ratio); higher = more active; in vitro selection for triplet polymerase activity
# Method in brief: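 Only genotypes with ≥10 input reads and ≥1 read per output were kept after Illumina sequencing of input and output libraries. These libraries were PCR-built, transcribed mutants of each subunit of a heterodimeric triplet polymerase ribozyme, each put through one triplicate in vitro selection round with frozen incubation at −7 °C, gel excision of extended constructs, streptavidin-bead capture and RT-PCR. Fitness is a logarithmic ratio of genotype enrichment to wild-type enrichment, from inverse-variance-weighted replicate averages, with the logarithm in base 2.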
row,Variant,polymerase ribozyme fitness (log ratio)
1,C8G A29U G120U,0.42
2,U7G A46C A68C C70U C97U G120U G127U,-5.43
3,U7G U96A A121C,0.553
4,C8G A50C C73U G93A,-0.0523
5,C8G A46G,0.594
6,C8A G19A A50G U54A A103C G120C,-5.02
7,U7G C8U C53A U59C C80U,-4.87
8,C8A C13U U55G G69A,-2.21
9,C8A A41U C49U,-1.56
10,C8G C13A A18G C53A C88A U125G,-3.4
11,C8G G36A A74U A90G,-0.292
12,C8A G35A G61A C89U A95U U106A,-6.13
13,C8A G47C,-1.8
14,C8A A24G U32A C73G A111G,-4.24
15,C8A A46C C56G G127A,-3.01
16,C8G C20U G52U C62A,-2.37
17,C8G C98G U132C,-4.39
18,C8A U9G U87A,0.00649
19,C8A C28U G52U G117C C124A G128A U133A,-6.69
20,C8G C13U A16U G71A,-0.033
21,U7G G10A G39U G69C C101G G110C,-7.07
22,U7G G39A G58A G69U C97U,0.0234
23,U7C U9G A26G C72A,-1.08
24,U7G G51C C115U,-5.78

row,Variant,polymerase ribozyme fitness (log ratio)
1,U7C G61U,0.179
2,U7G A43U G48U G60C C115A U126A,-3.03
3,C8A G19U G44U C97U,-3.97
4,C8A C15G C64U C82G C89A U109A,-6.66
5,C8G C82A G117U,0.587
6,C8G A37U G44A G60C C115A,-0.0408
7,U7G C13U A84U U96A A121C,0.875
8,C8A G52A C98A,-4.9
9,C8G A37G G71A,0.737
10,C8A U21A C34G C70A U109G,-5.88
11,U7G U33G,-5.33
12,U7G G10A G19U G113A,-1.32
13,C8G C12U G63A G122A C123U,0.85
14,U7C G93A,-1.65
15,U7C G39A,-0.619
16,C8A C12U C114U U116G,-4.98
17,C8G G44C G60A,0.198
18,U7G G48U C53U A95C G117A,-1.11
19,C8G C80A A90U G128C U129G,-4.56
20,C8G C88A,-0.193
21,C8G A24G C124U U126G,-2.55
22,C8A A108G,-1.84
23,C8G C89A A105C,-4.02
24,C8A A74U,-0.0501

row,Variant,polymerase ribozyme fitness (log ratio)
1,C8A A74G,0.152
2,C8A G36U G69A C88A C115U U131G,-6.31
3,U7G C114U G127A,-1.17
4,C8A G47U U78A A83C C98G U112A,-7.02
5,C8G C15A G69A C89G,-5.71
6,U7G C13A A37C G52A G69C,-1.85
7,C8A G120A,1.88
8,C8G C28G,-2.05
9,C8G C28A,-3.24
10,C8A G10U C73A,-0.361
11,C8G C15U G19A U125A,-2.55
12,U7G C8A C86U,0.828
13,C8A C12A C79U C80U C114U,-4.99
14,U7G G120A,1.99
15,C8A C53U U55A G77A C89A U129C,-3.11
16,C8A U54G A105G U112A C123G C124A U132C,-1.56
17,C8G A18U U21A C73U G93A,-3.79
18,U7G C15A U38C C40G A41U G48U G69A C89A U96G C98U A111G,-7.66
19,U7C G57U,0.0649
20,U7C G57A,-0.108
21,C8G A18U C73G U126G,-5.64
22,C8G C15A C20U C56A G57U,-1.84
23,U7G G52A C104A C114G U133G,-3.61
24,U7G U132C,0.108

row,Variant,polymerase ribozyme fitness (log ratio)
1,C8G C49G C89G,-1.42
2,C8G C97G,-3.25
3,C8G C49G A50U C79U U131C,-2.75
4,U7G G110U,-0.723
5,C8G A50U U54C U106A G117A,-0.842
6,U7G U32G C73A C98A,-4.14
7,C8G C12G U55G G61U G71A,-6.64
8,C8A G42U G44A C114U,-1.01
9,C8G C12G A46U,-0.837
10,U7G U59G C62U A84C A90U A111U C115A,-5.26
11,C8A G113C,-1.59
12,C8G G10C G23C G25A G60C C88G G110A,-7.14
13,C8G C13U G45C A84C,0.0875
14,U7G A43U G47C G58U U59G C82U G110A,-5.4
15,C8G C62U C86G G117A A119U,-0.52
16,U7G G10U C15A C56A G63C C64A C114A A121U C123G,-6.92
17,U7G G17U A27C C53U C56A,-4.57
18,U7G U78G C80G G135U,-5.8
19,U7G G10C G45A G47A U59G G77A,-1.37
20,U7G G10U C15A U54A C72G C104A,-2.9
21,C8A C12A C85U,-0.437
22,U7G C12G A37G,0.709
23,C8G C97U C102U,-1.4
24,C8A G57U A66G C76U A90U,-4.82

row,Variant,polymerase ribozyme fitness (log ratio)
1,C8A C40G A84U,-0.858
2,C8G A74C,0.88
3,C8G A43U U54C C114A A118G,-4.79
4,U7C U21C A83G G120A,0.428
5,U7C U14C A29G G71C G113U,-4.94
6,C8A A91G C98U,-1.37
7,C8G G19U G71A G113A U130C,-2.08
8,C8G G36U U54C A91C C124A,-0.94
9,C8A A50C C62A C82A C85A C88U C89G A121U,-3.62
10,C8A C89A G122U,-0.485
11,U7G C11U A18C G45U C53A,-2.72
12,C8A U9G A16G A24G G39C G60A C64A U92C G110U G113U A121U C123G U126G,-6.69
13,C8A G117C,-2.07
14,U7C G42U G60C G120A C124G G128A,-3.07
15,U7G G10U C79G,-1.66
16,C8A G48C,-0.457
17,C8A C115G,-0.0701
18,C8A C115U,-0.595
19,C8A A27G C56U C62U,-1.49
20,C8A A18C C56G A95G,-2.26
21,C8G C72A,0.366
22,C8G C101G G128U,-3.26
23,U7G C15G C49G U112G,-1.33
24,U7C U21G U96G,-1.67

row,Variant,polymerase ribozyme fitness (log ratio)
1,C8G G17U U81A U87C U96C G113A,-4.04
2,C8A U38A G42U G45A,-2.61
3,U7G G69A C101U,-2.81
4,C8G C64U,0.927
5,U7G A27U G48A U112A,-1.8
6,C8A G25U A26C C40U G63U C88G U112C C123A C124A U130A,-7.64
7,U7G A50G U54C G128U,-1.5
8,C8A G10U U14G C56A C64U U78A C86A C101U,-2.72
9,U7G G65A,-4.77
10,C8A G58C U112C A121G,1.27
11,C8A G110A,-0.267
12,C8A G110C,-3.59
13,U7G G63U C88U G93C,-2.75
14,C8A C49A G71U C86A G122A,-0.666
15,U7C G135C,-0.63
16,C8A U9G G39C G69A U78C U92G U106A,-7.09
17,U7C G42U G69C,-2.97
18,U7C G69C A90G G113C,-3.11
19,C8A G63A,-0.863
20,C8G C13G G36A C72U U78A A111C,0.397
21,C8A G35C G71A,-5.94
22,C8G C56A,0.399
23,C8A G36U U132A,-1.09
24,C8A G69C G110C,-4.93

row,Variant,polymerase ribozyme fitness (log ratio)
1,C8G C11U G120A,2.17
2,U7G A105C G120U,-0.828
3,C8A G47A C80A U112A,-5.77
4,C8A C13U C31A G61U U96A C124G,-5.55
5,U7G G39A C62G C114G,-6.04
6,C8A A74C G93C U116A,-2.46
7,C8A U21G,-1.24
8,U7G C12U C15A C22G C62U C80U C86U U96C G113C,-6.05
9,C8A C64U,0.575
10,U7G C15U C20U,-1.35
11,C8A A50U C89A A90G,-2.46
12,C8A C53G,-0.744
13,C8A U112C A121G,2.38
14,C8G C89U,-0.514
15,U7G C49A C123U,0.939
16,C8A C12G G39C G63C U78G G117U,-2.3
17,U7G A43G G47U G61A U96A,-2.6
18,C8A G47C C56G C82U U87A C101U G107U C115U A118C,-6.49
19,C8A G35A C89U A95U U106A,-4.65
20,C8G A16C C62U C94A U112G U130C,-1.66
21,C8A G48C C49U C62A C94A,-3.22
22,C8G C15U U54G G117C,0.947
23,U7G C73A C80A G128C,-5.2
